Results as given in patent publication US20200317768A1 (published 2020).

T1: soluble mouse FcγRII, His-tagged (mouse, UniProt P08101 30-210, limits assumed)
T1 construct: Captured on the chip by an anti-His antibody
T1 sequence (looked up): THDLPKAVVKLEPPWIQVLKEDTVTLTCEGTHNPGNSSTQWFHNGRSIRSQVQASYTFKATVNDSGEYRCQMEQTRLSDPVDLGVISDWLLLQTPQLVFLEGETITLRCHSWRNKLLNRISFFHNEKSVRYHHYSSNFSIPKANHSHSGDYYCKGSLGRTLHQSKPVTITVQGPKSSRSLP

T2: Cynomolgus monkey latent myostatin (cynomolgus monkey, UniProt Q95J86 25-266; Q95J86 267-375)
T2 construct: Latent form = complex of two propeptides and the mature dimer; also called Cyno latent myostatin
T2 sequence 1: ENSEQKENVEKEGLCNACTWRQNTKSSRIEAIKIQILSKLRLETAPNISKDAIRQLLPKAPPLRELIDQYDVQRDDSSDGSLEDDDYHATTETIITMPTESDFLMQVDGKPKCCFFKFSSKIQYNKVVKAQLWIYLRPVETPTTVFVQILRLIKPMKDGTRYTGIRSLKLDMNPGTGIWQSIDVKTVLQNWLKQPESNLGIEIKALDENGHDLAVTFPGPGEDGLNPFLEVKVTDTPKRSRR
T2 sequence 2: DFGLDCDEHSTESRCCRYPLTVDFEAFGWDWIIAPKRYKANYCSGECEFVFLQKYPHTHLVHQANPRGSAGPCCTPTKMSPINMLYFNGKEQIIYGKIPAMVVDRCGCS

T3: Mouse latent myostatin (mouse, UniProt O08689 26-267; O08689 268-376)
T3 construct: Latent form = complex of two propeptides and the mature dimer
T3 sequence 1: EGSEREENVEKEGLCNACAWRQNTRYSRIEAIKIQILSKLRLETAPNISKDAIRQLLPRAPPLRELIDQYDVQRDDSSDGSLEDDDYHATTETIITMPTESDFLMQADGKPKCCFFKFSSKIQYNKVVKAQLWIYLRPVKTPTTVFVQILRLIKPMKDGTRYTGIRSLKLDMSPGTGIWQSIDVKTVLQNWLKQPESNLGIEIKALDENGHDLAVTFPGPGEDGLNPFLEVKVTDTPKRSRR
T3 sequence 2: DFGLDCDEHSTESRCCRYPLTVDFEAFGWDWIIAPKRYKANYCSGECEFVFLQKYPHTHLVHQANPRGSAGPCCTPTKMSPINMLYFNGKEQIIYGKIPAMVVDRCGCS

T4: Human latent myostatin (human, UniProt O14793 25-266; O14793 267-375)
T4 construct: also called human myostatin latent form
T4 sequence 1: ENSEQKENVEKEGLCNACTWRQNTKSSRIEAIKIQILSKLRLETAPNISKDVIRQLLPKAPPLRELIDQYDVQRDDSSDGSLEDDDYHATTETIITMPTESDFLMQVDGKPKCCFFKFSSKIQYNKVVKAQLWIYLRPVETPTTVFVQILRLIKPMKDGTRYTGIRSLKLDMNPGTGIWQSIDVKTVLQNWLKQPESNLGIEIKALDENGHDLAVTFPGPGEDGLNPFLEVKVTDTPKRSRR
T4 sequence 2: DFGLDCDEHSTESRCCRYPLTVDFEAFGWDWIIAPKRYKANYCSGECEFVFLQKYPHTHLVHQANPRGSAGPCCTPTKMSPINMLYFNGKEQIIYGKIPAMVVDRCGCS

T5: cynomolgus monkey FcγRIIIaS extracellular domain, C-terminal His-tag (cynomolgus monkey, UniProt Q8SPW2 21-206 at identity 1.00))
T5 construct: also called cyno FcγRIIIaS; FcgRIIIaS
T5 chain: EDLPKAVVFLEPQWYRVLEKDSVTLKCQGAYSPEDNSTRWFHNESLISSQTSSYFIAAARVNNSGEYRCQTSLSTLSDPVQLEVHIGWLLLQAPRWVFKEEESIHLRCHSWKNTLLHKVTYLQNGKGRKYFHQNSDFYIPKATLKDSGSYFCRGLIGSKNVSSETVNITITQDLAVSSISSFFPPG

B1: MS1032LO06-SG1 (M103205H795-SG1/M103202L889-SK1) (antibody, human IgG1, kappa)
heavy: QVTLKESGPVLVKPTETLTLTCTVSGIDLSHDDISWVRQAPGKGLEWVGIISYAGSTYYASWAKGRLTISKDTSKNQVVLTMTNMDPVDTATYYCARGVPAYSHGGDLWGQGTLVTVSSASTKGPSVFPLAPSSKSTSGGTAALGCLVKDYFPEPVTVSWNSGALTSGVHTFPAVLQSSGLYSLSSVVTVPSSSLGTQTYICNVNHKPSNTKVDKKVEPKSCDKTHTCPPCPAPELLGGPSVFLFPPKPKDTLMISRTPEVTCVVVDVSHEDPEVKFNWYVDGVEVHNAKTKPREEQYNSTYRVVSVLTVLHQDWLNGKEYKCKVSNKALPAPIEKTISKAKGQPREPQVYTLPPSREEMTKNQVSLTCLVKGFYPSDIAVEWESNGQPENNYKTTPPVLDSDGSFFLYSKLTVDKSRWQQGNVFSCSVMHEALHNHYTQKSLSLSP
light: DIVMTQSPATLSLSPGERATLSCTSSQSVYHANWLSWFQQKPGQPPKLLIYWASTLAYGVPSRFSGSGSGTDFTLTISSLQPEDAATYYCAGGYGGGRYAFGQGTKVEIKRTVAAPSVFIFPPSDEQLKSGTASVVCLLNNFYPREAKVQWKVDNALQSGNSQESVTEQDSKDSTYSLSSTLTLSKADYEKHKVYACEVTHQGLSSPVTKSFNRGEC
notes: Anti-latent myostatin antibody
B2: MS_M103205H795-SG1/M103202L889-SK1 (antibody, human IgG1, kappa)
heavy: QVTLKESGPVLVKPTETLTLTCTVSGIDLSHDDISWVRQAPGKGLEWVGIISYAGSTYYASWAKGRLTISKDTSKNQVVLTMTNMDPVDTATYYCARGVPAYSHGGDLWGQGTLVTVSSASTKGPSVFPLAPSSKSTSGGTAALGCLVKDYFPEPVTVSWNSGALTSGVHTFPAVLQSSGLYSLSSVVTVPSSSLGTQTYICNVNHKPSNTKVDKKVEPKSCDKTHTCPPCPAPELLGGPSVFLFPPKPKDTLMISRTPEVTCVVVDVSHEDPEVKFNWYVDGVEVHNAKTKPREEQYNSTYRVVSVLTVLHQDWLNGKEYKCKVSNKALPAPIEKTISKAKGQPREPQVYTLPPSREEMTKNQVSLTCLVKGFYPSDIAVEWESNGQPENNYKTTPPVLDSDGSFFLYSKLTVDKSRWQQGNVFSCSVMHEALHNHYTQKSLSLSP
light: DIVMTQSPATLSLSPGERATLSCTSSQSVYHANWLSWFQQKPGQPPKLLIYWASTLAYGVPSRFSGSGSGTDFTLTISSLQPEDAATYYCAGGYGGGRYAFGQGTKVEIKRTVAAPSVFIFPPSDEQLKSGTASVVCLLNNFYPREAKVQWKVDNALQSGNSQESVTEQDSKDSTYSLSSTLTLSKADYEKHKVYACEVTHQGLSSPVTKSFNRGEC
notes: also called MS1032LO06-SG1

Experiments:
[1] = target: T1, soluble mouse FcγRII, His-tagged; experiment: SPR, mouse FcgRII-His captured, antigen-antibody complex injected, pH7.4, 25C
[2] = target: T2, Cynomolgus monkey latent myostatin; experiment: SPR (BIACORE T200) 37C, pH 5.8, antibody captured by ProA/G
Description: (§1) ProA/G (Pierce) was immobilized onto all flow cells of a CM4 chip using an amine coupling kit (GE Healthcare). All antibodies and analytes were prepared in ACES pH7.4 or pH5.8 buffer containing 20 mM ACES, 150 mM NaCl, 1.2 mM CaCl₂, 0.05% TWEEN®) 20, 0.005% NaN₃. […] Human, cyno, and mouse latent myostatin was injected at 3.125 to 50 nM prepared by two-fold serial dilution, followed by dissociation. The sensor surface was regenerated each cycle with 10 mM Glycine HCl pH1.5. Binding affinity was determined by processing and fitting the data to a 1:1 binding model using BIACORE® T200 Evaluation software, version 2.0 (GE Healthcare).

Mouse latent myostatin = target: T3, Mouse latent myostatin; experiment: as above
Description: as §1

Human latent myostatin = target: T4, Human latent myostatin; experiment: as above
Description: as §1

[3] = target: T5, cynomolgus monkey FcγRIIIaS …; experiment: SPR (BIACORE) 25C, antibody captured, FcgR as analyte
Description: The kinetic analysis of interactions between these antibodies and FcγR was carried out using BIACORE® T200 or BIACORE® 4000 (GE Healthcare). HBS-EP+ (GE Healthcare) was used as the running buffer, and the measurement temperature was set to 25° C. A chip produced by immobilizing Protein A. Protein A/G or mouse anti-human IgG kappa light chain (BD Biosciences) onto a Series S Sensor Chip CM4 or CM5 (GE Healthcare) by the amine-coupling method was used. […] After the measurement, the antibody captured on the chip was washed off by allowing reaction with 10 mM glycine-HCl, pH1.5 and 25 mM NaOH so that the chip was regenerated and used repeatedly. The sensorgrams obtained as measurement results were analyzed by the 1:1 Langmuir binding model using the BIACORE® Evaluation Software to calculate the binding rate constant ka (L/mol/s) and dissociation rate constant kd (l/s), and the dissociation constant KD (mol/L) was calculated from these values. […] Regarding such interactions, KD values were calculated using the following 1:1 binding model described in BIACORE® T100 Software Handbook BR1006-48 Edition AE.

Row | Binder | biacore IC binding [1] | Kd [2] [nM] | Kd (Mouse latent myostatin) [nM] | Kd (Human latent myostatin) [nM] | Kd [3] [nM]
1 | B1 | 1 relative to SG1 (=1.00) | – | – | – | –
2 | B2 | – | 25.9 | 22.6 | 34 | 420
